Source: US20230201308A1, “TREATMENT OF CORONAVIRUS INFECTION WITH […]” (Eiger Biopharmaceuticals, Inc., priority 2020, published 2023)
Where two headings read alike, the source gives them in different places.

Test system: SARS-CoV-2

B1: pegylated interferon lambda-1a (protein)
chain: MKPTTTGKGCHIGRFKSLSPQELASFKKARDALEESLKLKNWSCSSPVFPGNWDLRLLQVRERPVALEAELALTLKVLEAAAGPALEDVLDQPLHTLHHILSQLQACIQPQPTAGPRPRGRLHHWLHRLQEAPKKESAGCLEASVTFNLFRLLTRDLKYVADGNLSLRTSTHPEST
modifications: PEG
notes: 180 mcg subcutaneous injection
- risk reduction by dominant variant (August 2021 to December 2021, Delta predominant): 46%
- risk reduction by dominant variant (December 2021 to February 2022, Omicron dominant): 83%
- # events (variant analysis) (Full Study, June 2021-February 2022, N 916): 916 (25)
- risk reduction by dominant variant (June 2021 to August 2021, Gamma predominant): 25%
- HR, all-cause mortality or hospitalization due to COVID-19, Time-to-Event analysis (human, in vivo): 0.00
- RR, all-cause mortality or hospitalization due to COVID-19 (human, in vivo): 0.14
- estimated effect across variants (human, in vivo): beneficial across all variants
- efficacy across SARS-CoV-2 variants (viral sequencing on all patients): pan-variant efficacy in all variants tested, including omicron
